Laboratory results from patent US20250018037A1 (SEOUL NATIONAL UNIVERSITY R AND DB FOUNDATION, published 2025).
No end group written: not given here.

Tests used:
[1] = target: T1, Biotin conjugated 6×His peptide (also: biotin conjugated, site not given here); assay: SPR, Biacore 8K, CM5 chip; biotin 6×His peptide captured on streptavidin, scFv injected in 2-fold dilutions
T1 construct: also called histidine hexamer peptide
T1 peptide: HHHHHH
Text: (§1) Since the murine anti-His antibody had decreased binding affinity against 6×His peptide after humanization, affinity maturation was further performed to increase it and chicken anti-CD40 antibody (2B1) was only humanized. Serial dilution antibodies at 6 concentrations were used to characterize the kinetics of antibody-antigen binding by SPR. […] So, there was not affinity loss against their antigen after humanization (FIG. 22B).
(§2) A Biacore 8K SPR system (Cytiva) equipped with CM5 sensor chip (Cytiva) was used to generate binding kinetic rate and affinity constants. To prepare the capture surfaces for anti-His antibodies, streptavidin was immobilized, followed by biotin conjugated 6×His peptide was captured. The antibodies were 2-fold serial diluted with 1×PBS, then injected at a flow rate of 30 μL/min for 3 minutes, allowing 10 minutes dissociation phase. The surface was regenerated using 10 mM glycine, pH 1.5. The kinetics were analyzed using Biacore 8K evaluation software, version 1.0 (Cytiva). In case of anti-CD40 antibodies, anti-human Fc IgG (Jackson ImmunoResearch) was immobilized, and then CD40-hFc protein (Acro Biosystems, #CD0-H5253) was captured. The antibodies were 2-fold serial diluted with HBS-EP+ buffer (10 mm HEPES, 150 mm sodium chloride, 3 mm EDTA, 0.05% Polysorbate 20), then injected at a flow rate of 30 μL/min for 4 minutes, allowing >15 minutes dissociation phase.

[2] = target: T1, Biotin conjugated 6×His peptide; assay: SPR, Biacore 8K; reference is the parental murine anti-His antibody
Text: as §1, §2

[3] = target: T1, Biotin conjugated 6×His peptide; assay: SPR (Biacore 8K): biotin 6×His peptide captured on immobilized streptavidin, scFv injected in 2-fold dilutions (6 curves)
Text: as §1, §2

B1: Humanized and affinity maturated anti-His scFv (hu3D5M) (scFv)
scFv: DIVMTQSPLSLPVTPGEPASISCRSSQSIVHSNRNTYLEWYLQKPGQSPQLLIYKVSNRFSGVPDRFSGSGSGTDFTLKISRVEAEDVGVYYCFQGSHVPFTFGQGTKLEIKRGGGGSGGGGSGGGGSGGGGSQVQLVQSGAEVKKPGASVKVSCKASGYTFTDYYMNWVRQAPGQGLEWMGDINPNHGGTYYNHKFKGRVTMTVDTSTSTAYMELRSLRSDDTAVYYCESQSGAYWGQGTTVTVSS
notes: also called humanized anti-His
- Kd [1]: 2.15 nM
- fold higher affinity than parental antibody [2]: 5.8 fold
- koff [3]: 0.00094 s⁻¹
- kon [3]: 437000 M⁻¹ s⁻¹
